From paper PMC2834734 come the findings set out here.

This test deals with myc tagged version of gp96 (UniProt P14625). As to the kind of experiment: pull-down; gp96-myc held on anti-myc agarose beads (Pierce c-Myc Tag IP/Co-IP kit); mixed with 10^8 DRP of purified BAAV or AAV4 vector; 4 °C for 1 h; extensive washes with TBS-T in spin columns; bound vector DNA quantified by qPCR; fold change relative to vector bound to GFP beads; n = 3.
UniProt P14625, sequence (P14625 22-803): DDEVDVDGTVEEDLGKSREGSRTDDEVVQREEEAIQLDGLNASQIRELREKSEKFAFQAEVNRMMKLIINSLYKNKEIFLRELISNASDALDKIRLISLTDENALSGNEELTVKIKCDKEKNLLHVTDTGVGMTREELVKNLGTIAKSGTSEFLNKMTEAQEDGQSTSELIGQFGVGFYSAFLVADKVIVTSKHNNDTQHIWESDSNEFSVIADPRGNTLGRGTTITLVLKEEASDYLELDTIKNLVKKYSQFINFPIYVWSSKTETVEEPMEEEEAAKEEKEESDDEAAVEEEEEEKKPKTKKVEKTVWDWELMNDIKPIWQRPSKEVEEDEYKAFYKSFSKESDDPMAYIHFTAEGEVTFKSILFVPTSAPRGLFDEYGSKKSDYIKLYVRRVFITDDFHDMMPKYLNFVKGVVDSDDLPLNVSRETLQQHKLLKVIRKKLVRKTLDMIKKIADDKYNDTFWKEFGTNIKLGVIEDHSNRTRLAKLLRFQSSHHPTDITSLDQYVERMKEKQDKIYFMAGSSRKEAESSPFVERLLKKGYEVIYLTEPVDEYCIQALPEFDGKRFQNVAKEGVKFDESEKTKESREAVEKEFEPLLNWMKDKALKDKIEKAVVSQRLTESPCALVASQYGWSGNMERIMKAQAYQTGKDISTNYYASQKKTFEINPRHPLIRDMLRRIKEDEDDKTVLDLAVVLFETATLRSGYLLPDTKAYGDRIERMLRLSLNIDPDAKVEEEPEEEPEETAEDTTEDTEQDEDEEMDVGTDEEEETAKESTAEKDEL

In turn, “recombinant bovine adeno-associated virus (BAAV) vector particles containing the CMV-GFP expression cassette (complex)” came in with a fold increase in bound vector against control GFP or TRPC1 beads of 2 to 3 fold.
